We go through one molecule from patent publication US20100324271A1 (TOKAI UNIVERSITY EDUCATIONAL SYSTEM, published 2010).

This assay addresses T1, fetuin (UniProt P12763 19-359, carrying complex type and O-linked oligosaccharides).
T1 construct: Natural glycoprotein, separated by SDS-PAGE and blotted onto PVDF; also called fetuin carrying complex type and O-linked oligosaccharides
T1 sequence (looked up): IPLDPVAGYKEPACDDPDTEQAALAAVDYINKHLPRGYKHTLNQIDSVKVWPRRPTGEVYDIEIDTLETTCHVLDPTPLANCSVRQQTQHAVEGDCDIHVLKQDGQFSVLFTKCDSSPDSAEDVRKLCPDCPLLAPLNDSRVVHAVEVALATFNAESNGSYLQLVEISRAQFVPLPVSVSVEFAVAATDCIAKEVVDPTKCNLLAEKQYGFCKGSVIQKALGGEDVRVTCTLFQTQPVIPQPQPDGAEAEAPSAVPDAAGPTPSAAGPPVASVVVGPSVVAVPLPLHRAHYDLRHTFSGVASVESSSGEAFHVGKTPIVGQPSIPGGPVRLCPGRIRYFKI
The assay can be described thus: Western blot, 5 µg/lane on PVDF, phage detected with HRP-labeled anti-M13 antibody. Here is the method: Fetuin, asialo-fetuin, RNase A, and RNase B (5 μg/lane) were separated by SDS-polyacrylamide gel electrophoresis (10% gel) and blotted onto a PVDF membrane. The SDS-PAGE gel was stained with Coomassie Brilliant Blue. The reactivity of phage antibody to natural glycoproteins was examined by Western blotting with M3-7 phage antibody followed by HRP-labeled anti-M13 phage antibody as described above.

B1: M3-7 phage antibody (scFv, V domains shown)
VH: QVQLQQSGPGLVKASETLSLTCAVSGYSISSGYYWGWIRQPPGKGLEWIGNIYHSGNTYYNPSLKSRVTISRDTSKNHFSLKLKSVTAADTAVYYCARADPGYMIFNWFDPWGQGTLVTVSS
VL: NFMLTQPPSASGTPGQRVTISCSGSSSNIGNNDVYWYQQFPGTAPKLLIYRNNQRPSGVPDRFSGSKSGTSASLAISGLRSEDEADYYCAAWDDSLIFGGGTKLTVLG
notes: also called Man3-specific scFv-displaying phage antibody
Take B1: the binding result is on record as “no binding”.
